# According to patent US20050106647A1:
# Where two headings read alike, the source gives them in different places.
# How the values were obtained:
# [1] = target: PA-BODIPY conjugate (Bacillus anthracis protective antigen conjugated to BODIPY FL) (Bacillus anthracis) (UniProt P13423)
# [2] = target: PA-BODIPY conjugate (Bacillus anthracis protective antigen conjugated to BODIPY FL) (Bacillus anthracis) (UniProt P13423); remark: listed apart in the source
# Sequence of PA-BODIPY conjugate (Bacillus anthracis protective antigen conjugated to BODIPY FL) (Bacillus anthracis) (P13423 30-764 limits assumed): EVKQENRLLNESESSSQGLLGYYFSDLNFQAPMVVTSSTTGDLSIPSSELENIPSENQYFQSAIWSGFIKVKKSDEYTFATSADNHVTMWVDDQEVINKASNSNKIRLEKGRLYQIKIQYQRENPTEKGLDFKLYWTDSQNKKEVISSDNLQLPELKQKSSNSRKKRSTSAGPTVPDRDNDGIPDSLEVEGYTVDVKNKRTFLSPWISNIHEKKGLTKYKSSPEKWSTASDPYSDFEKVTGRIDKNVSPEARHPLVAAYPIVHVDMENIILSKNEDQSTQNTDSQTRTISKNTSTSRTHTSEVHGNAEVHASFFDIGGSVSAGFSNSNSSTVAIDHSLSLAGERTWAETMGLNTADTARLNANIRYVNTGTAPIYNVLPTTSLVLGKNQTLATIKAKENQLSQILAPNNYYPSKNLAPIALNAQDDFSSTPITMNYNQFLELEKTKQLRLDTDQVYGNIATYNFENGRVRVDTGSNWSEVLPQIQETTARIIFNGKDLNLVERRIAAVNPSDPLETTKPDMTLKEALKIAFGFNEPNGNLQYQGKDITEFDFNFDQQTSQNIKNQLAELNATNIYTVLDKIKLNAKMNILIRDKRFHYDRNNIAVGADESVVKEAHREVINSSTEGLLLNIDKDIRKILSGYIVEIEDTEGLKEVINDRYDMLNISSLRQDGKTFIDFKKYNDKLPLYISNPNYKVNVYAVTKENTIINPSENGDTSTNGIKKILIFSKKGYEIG
# Sequence of NlpA-[Dig scFv] (26-10 anti-digoxin/digoxigenin scFv) fusion anchored on the E. coli inner membrane (P04846 whole entry, looked up, the tested form may be a part): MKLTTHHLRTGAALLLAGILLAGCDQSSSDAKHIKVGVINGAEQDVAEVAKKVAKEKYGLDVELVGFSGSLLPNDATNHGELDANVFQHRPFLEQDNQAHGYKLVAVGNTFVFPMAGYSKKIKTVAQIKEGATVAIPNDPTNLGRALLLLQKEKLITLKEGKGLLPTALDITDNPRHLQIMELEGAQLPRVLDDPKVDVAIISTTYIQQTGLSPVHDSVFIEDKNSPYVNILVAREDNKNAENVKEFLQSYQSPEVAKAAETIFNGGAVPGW
# Sequence of 26-10 anti-digoxin/digoxigenin scFv-g3p fusion (pAK200) (P69168 268-424): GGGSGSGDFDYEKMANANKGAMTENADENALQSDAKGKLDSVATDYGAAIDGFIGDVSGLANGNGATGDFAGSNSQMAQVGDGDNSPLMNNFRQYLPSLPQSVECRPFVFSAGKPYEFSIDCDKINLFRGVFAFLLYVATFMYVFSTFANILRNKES
Substance,mean fluorescence (M) [1],mean fluorescence (M) [2]
NlpA-[Dig scFv] (26-10 anti-digoxin/digoxigenin scFv) fusion anchored on the E. coli inner membrane (from UniProt P04846 24-29),2.97,4.48
26-10 anti-digoxin/digoxigenin scFv-g3p fusion (pAK200) (from UniProt P69168 268-424),,7.25
